Test results as given in US20200002403A1 (UNIVERSITY COURT OF THE UNIVERSITY OF ABERDEEN, published 2020).
Where a chain is given by its changes, count along the chain named.

T1: mouse ICOSL (mouse, UniProt Q9JHJ8 47-279, limits assumed)
T1 construct: Target of ELSS1 panning; also called mICOSL
T1 sequence (looked up): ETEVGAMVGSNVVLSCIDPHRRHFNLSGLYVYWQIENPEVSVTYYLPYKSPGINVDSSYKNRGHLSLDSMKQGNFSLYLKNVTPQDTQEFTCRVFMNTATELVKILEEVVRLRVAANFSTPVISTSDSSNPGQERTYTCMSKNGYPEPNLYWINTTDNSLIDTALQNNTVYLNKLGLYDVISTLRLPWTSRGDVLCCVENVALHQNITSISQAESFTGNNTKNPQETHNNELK

B1: SEQ ID NO 43 (VNAR)
VNAR: TRVDQTPRTATKETGESLTINCVLTDTRYALYSTSWFRKNPGTTDWERMSIGGRYVESVNKGAKSFSLRIKDLTVADSATYICRANEMMPPMDVYGAGTVLTVN
notes: VNAR
B2: SEQ ID NO 42 (VNAR)
VNAR: TRVDQTPRTATKETGESLTINCVLTDTEYGLFSTSWFRKNPGTTDWERMSIGGRYVESVNKGAKSFSLRIKDLTVADSATYYCKALGWWPPAFPHWYDGAGTVLTVN
notes: VNAR
B3: SEQ ID NO 45 (VNAR)
VNAR: B2 VNAR with E28G, W89I, A92E
notes: VNAR
B4: SEQ ID NO 44 (VNAR)
VNAR: TRVDQTPRTATKETGESLTINCVLTDTSYGWFSTSWFRKNPGTTDWERMSIGGRYVESVNKGAKSFSLRIKDLTVADSATYICRAQAAIPDFPRYVYGAGTVLTVN
notes: VNAR
B5: SEQ ID NO 41 (VNAR)
VNAR: ASVNQTPRTATKETGESLTINCVLTDTGYGWFATSWFRKNPGTTDWERMSIGGRYVESVNKGAKSFSLRIKDLTVADSATYICRADMWPKNTKYSPDVYGAGTVLTVN
notes: VNAR

target: T1, mouse ICOSL; test: lead clones against targets used to screen ELSS1; alignment legend

Row | binding result | Binder
1 | binds | B1
2 | binds | B2
3 | binds | B3
4 | binds | B4
5 | binds | B5
